# Reference: article PMC2581436, “Role of Amphipathic Helix of a Herpesviral Protein in Membrane Deformation and T Cell Receptor Downregulation” (PLoS Pathogens, 2008)
# Biological target: the molecule itself
# Test: native gel or EMSA; Blue Native PAGE (10% native gel) of whole-cell lysates of 293T cells solubilized with 2.5% Triton X-100; GFP fusions detected by anti-GFP immunoblot; markers aldolase ~160 kDa and BSA 66/132 kDa
protein,measurement,value
"ANERNIVKDLKRLENKINVIICLVVVILAVLLLVTVLSILHIGMKS (domain or fragment, source: 293T, transiently expressing, detergent-solubilized lysate) [GFP-Tip^211-256]",stoichiometry N,~4
